Experimental data published in article PMC12159149.

Biological target: geCHO.sE2.7 (secreted HCV E2 ectodomain produced in glycoengineered CHO line 7) (hepatitis C virus, genotype 1a (H77C))
Assay: ELISA

Substance “CD81 large extracellular loop (LEL)-Fc fusion” has an OD at 450 nm at the highest concentration of CD81-LEL-Fc (2.8 μM) of 0.4 OD.
